T1: IL-4-biotin (Homo sapiens, UniProt P05112)
T1 sequence (P05112 25-153): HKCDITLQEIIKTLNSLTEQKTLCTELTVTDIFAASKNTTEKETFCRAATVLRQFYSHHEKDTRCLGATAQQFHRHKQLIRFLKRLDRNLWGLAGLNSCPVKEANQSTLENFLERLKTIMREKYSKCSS


Legend:
TNF-alpha-biotin = experiment: soluble TNFRFc competing with plate-bound TNFRFc for TNF-alpha-biotin, ELISA format
[1] = biological target: T2, TNFRFc (extra-cellular portion of the 80 kD form of the human TNF receptor fused to Fc of human IgG1) (Homo sapiens, UniProt P20333); experiment: Cell-free TNF binding assay, competition of ligands with TNF-alpha-biotin; conditions: 200 ng/ml TNFRFc for coating, 20 ng/ml TNF-alpha-biotin, FIG. 8; for effect on binding of TNF-alpha-biotin to TNFRFc: concentrations used
T2 construct: made in house
Method: (§1) The assay plate was washed five times with PBS containing 0.05% Tween 20 and then incubated with 275 μl of PBS containing 5% skim milk powder at room temperature for 60 min and then washed as above. Then a "checkerboard titration" was initially carried out in order to determine a suitable combination of receptor and ligand concentrations for the design of the assay. […] After washing as above, incubation with 100 μl of streptavidin-peroxidase (Amersham; 1:250 in DMEM/FCS) was carried out at room temperature for 30 min and then washed as above. The bound peroxidase was detected by the color produced in 100 μl of tetramethylbenzidine substrate solution (Behringwerke). After incubation at room temperature for 30 min, the extinction at 450 nm was measured.

[2] = biological target: T3, GM-CSFRFc (extracellular domain of the human GM-CSF receptor fused to Fc of human IgG1) (Homo sapiens, UniProt P15509); experiment: Cell-free GM-CSF binding assay, competition of ligands with GM-CSF-biotin; conditions: 1000 ng/ml GM-CSFRFc for coating, 150 ng/ml GM-CSF-biotin, concentrations used; FIG. 14
T3 construct: made in house; host or cells: COS cells (transient; supernatants used)
Method: as §1, with “ELISA plates (Nunc, type B) were coated overnight at 4° C. with 100 μl of an affinity-purified rabbit serum against the CH2 domain of human IgG (Dakopatts). The concentration was 10 μg/ml in PBS (137 mM NaCl, 2.7 mM KCl, 6.1 mM Na2 HPO4, 3.9 mM KH2 PO4, 0.5 mM MgCl2, 0.1 mM CaCl2, pH 7.0). The assay” for “The assay”
Transient expression of pGM-CSFRFc in COS cells was carried out. To do this, COS cells were transfected with pGM-CSFRFc with the aid of DEAE-dextran (EP-A 0325 262).

TNFRFc (human) = experiment: competition with TNF-alpha-biotin (20 ng/ml) for plate-bound TNFRFc (200 ng/ml for coating), ELISA format
[3] = biological target: T4, IL-4RFc (extracellular portion of the human receptor for IL-4 fused to Fc of human IgG1) (Homo sapiens, UniProt P24394); experiment: Cell-free IL-4 binding assay, competition of ligands with IL-4-biotin; conditions: 300 ng/ml IL-4-biotin, various concentrations of competitor; FIG. 3
T4 construct: It is composed of the extracellular portion of the human receptor for IL-4
Method: as §1, with “ELISA plates (Nunc, type B) were coated overnight at 4° C. with 100 μl of an affinity-purified rabbit serum against the CH2 domain of human IgG (Dakopatts). The concentration was 10 μg/ml in PBS (137 mM NaCl, 2.7 mM KCl, 6.1 mM Na2 HPO4, 3.9 mM KH2 PO4, 0.5 mM MgCl2, 0.1 mM CaCl2, pH 7.0). The assay” for “The assay”

IL-4-biotin = biological target: T1, IL-4-biotin; experiment: Detection of soluble IL-4 receptor in the cell-free binding assay (competition for IL-4-biotin); conditions: plate coated with 300 ng/ml IL-4RFc; FIG. 4
Method: as §1, with “ELISA plates (Nunc, type B) were coated overnight at 4° C. with 100 μl of an affinity-purified rabbit serum against the CH2 domain of human IgG (Dakopatts). The concentration was 10 μg/ml in PBS (137 mM NaCl, 2.7 mM KCl, 6.1 mM Na2 HPO4, 3.9 mM KH2 PO4, 0.5 mM MgCl2, 0.1 mM CaCl2, pH 7.0). The assay” for “The assay”

Row | Molecule | effect on binding of TNF-alpha-biotin to TNFRFc [1] | inhibition of binding of GM-CSF-biotin to GM-CSFRFc [2] | other results
1 | TNFRFc (Fc fusion) | – | – | IC50 (TNF-alpha-biotin): 0.035 µg/mL
2 | GM-CSF: granulocyte/macrophage colony-stimulating factor, unlabelled ligand | no effect | – | –
3 | TNF-alpha | – | do not inhibit | inhibition of binding of TNF-alpha-biotin, IC50 [1]: 5 ng/mL
4 | TNF-alpha (ligand) | – | – | IC50 (TNFRFc (human)): 5 ng/mL
5 | IL-1-alpha: interleukin ligand used for competition (specificity control) | no effect | do not inhibit | competition with IL-4-biotin for binding to IL-4RFc [3]: no binding activity
6 | IL-4: interleukin 4, unlabelled ligand used for competition | no effect | do not inhibit | –
7 | G-CSF: ligand used for competition (specificity control) (protein, UniProt P09919 31-207, looked up) Granulocyte …: TPLGPASSLPQSFLLKCLEQVRKIQGDGAALQEKLVSECATYKLCHPEELVLLGHSLGIPWAPLSSCPSQALQLAGCLSQLHSGLFLYQGLLQALEGISPELGPTLDTLQLDVADFATTIWQQMEELGMAPALQPTQGAMPAFASAFQRRAGGVLVASHLQSFLEVSYRVLRHLAQP | – | do not inhibit | –
8 | IL-7RFc: an Fc fusion of the human IL-7 receptor (protein) ESGYAQNGDLEDAELDDYSFSCYSQLEVNGSQHSLTCAFEDPDVNITNLEFEICGALVEVKCLNFRKLQEIYFIETKKFLLIGKSNICVKVGEKSLTCKKIDLTTIVKPEAPFDLSVVYREGANDFVVTFNTSHLQKKYVKVLMHDVAYRQEKDENKWTHVNLSSTKLTLLQRKLQPAAMYEIKVRSIPDHYFKGFWSEWSPSYYFRTPEINNSSGEMD | – | – | binding activity of soluble receptor/Fc fusion protein in IL-4-biotin competition assay (IL-4-biotin): no binding activity

Reference: patent publication US5639597A, “Cell-free receptor binding assays, the production and use thereof” (Behringwerke Aktiengesellschaft, priority 1990, dated 1997)
